Bridges are numbered along the chain shown (N, C = ends). Primed or numbered codes have the meaning given here. [ ]: non-standard residue; d: D form. Ygp(4) = Tyr with amino-capped PEG8 (O-(8x polyethylene glycol-amino)-tyrosine); Yn3(4) = Tyr with azide-capped PEG9 (O-(9x polyethylene glycol-azido)-tyrosine); PEG9″ = 9x polyethylene glycol spacer; PEG4′ = 4x polyethylene glycol; PEG9′ = 9x polyethylene glycol; hSer = N[C@@H](CCO)C(=O)O; Nle = CCCC[C@H](N)C(=O)O

The target of this experiment is IL-2Rβγ (CD122+, CD132+) on HEK-Blue IL-2Rβγ reporter cells (UniProt P14784). Briefly: cell-based or functional assay.
IL-2Rβγ (CD122+, CD132+) on HEK-Blue IL-2Rβγ reporter cells, sequence (P14784 27-551 limits assumed, chain 1 of 2): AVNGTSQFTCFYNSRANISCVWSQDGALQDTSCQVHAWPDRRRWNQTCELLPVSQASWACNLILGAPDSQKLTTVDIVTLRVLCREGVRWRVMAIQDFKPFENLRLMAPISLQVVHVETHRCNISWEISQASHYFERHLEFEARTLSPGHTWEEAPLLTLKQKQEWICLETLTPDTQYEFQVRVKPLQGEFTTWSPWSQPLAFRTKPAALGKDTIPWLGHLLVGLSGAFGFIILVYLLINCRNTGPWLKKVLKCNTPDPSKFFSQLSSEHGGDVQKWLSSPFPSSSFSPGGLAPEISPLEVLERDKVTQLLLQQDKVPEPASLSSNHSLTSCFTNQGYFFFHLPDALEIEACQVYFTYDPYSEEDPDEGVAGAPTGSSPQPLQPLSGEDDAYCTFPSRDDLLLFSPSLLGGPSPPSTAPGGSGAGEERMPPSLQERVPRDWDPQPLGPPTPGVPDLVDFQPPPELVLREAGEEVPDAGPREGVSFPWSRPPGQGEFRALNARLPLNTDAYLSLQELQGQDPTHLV
IL-2Rβγ (CD122+, CD132+) on HEK-Blue IL-2Rβγ reporter cells, sequence (P31785 23-369 limits assumed, chain 2 of 2, further chain): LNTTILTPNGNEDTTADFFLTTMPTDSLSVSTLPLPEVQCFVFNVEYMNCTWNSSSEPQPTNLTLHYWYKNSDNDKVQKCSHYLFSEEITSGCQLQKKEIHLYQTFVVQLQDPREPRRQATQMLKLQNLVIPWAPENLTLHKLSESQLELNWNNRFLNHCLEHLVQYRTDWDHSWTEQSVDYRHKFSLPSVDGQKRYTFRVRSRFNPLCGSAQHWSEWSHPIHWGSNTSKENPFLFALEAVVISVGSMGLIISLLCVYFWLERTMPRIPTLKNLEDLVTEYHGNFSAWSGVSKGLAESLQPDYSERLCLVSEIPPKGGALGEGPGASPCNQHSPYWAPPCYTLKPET

B1: CMP-161, MMP2 cleaved (ligand)
chain: PLGLAGAPTSSSTKKTQLQLEHLLLDLQ[Nle]ILEGINNYKNPKLTR[Nle]L[hSer][Yn3(4)]KF[Ygp(4)][Nle]PKKATELKHLQCLEEELKPLEEVL[hSer]LAQSKNFHLRPRDLISNINVIVLELKGSETTF[hSer]CEYADETATIVEFLNRWITFSQSIISTLT
modifications: not fully specified (N-terminus, bridges); ends and bridges not checked; also: cut by MMP2 in the PLGLAG linker, site not given here, ring opened
With B1, the Average EC50 (nM), HEK-Blue IL-2R (CD122+, CD132+) Reporter Assay came out at 0.0118 nM.

B2: CMP-159, MMP2 cleaved (ligand)
chain: PLGLAGAPTSSSTKKTQLQLEHLLLDLE[Nle]ILNGINNYKNPKLTR[Nle]L[hSer][Yn3(4)]KF[Ygp(4)][Nle]PKKATELKHLQCLEEELKPLEEVL[hSer]LAQSKNFHLRPRDLISNINVIVLELKGSETTF[hSer]CEYADETATIVEFLNRWITFSQSIISTLT
modifications: linker N-28 via PEG4′; not fully specified (N-terminus); ends not checked; also: cut by MMP2 in the PLGLAG linker, site not given here, ring opened
B2 showed an Average EC50 (nM), HEK-Blue IL-2R (CD122+, CD132+) Reporter Assay of 0.0071 nM.

B3: CMP-154 (ligand)
chain: PLGLAGAPTSSSTKKTQLQLEHLLLDLQ[Nle]ILNGIENYKNPKLTR[Nle]L[hSer][Yn3(4)]KF[Ygp(4)][Nle]PKKATELKHLQCLEEELKPLEEVL[hSer]LAQSKNFHLRPRDLISNINVIVLELKGSETTF[hSer]CEYADETATIVEFLNRWITFSQSIISTLT
modifications: linker N-35 via PEG9′; not fully specified (N-terminus); ends not checked
For B3, the Average EC50 (nM), HEK-Blue IL-2R (CD122+, CD132+) Reporter Assay is 0.106 nM.

B4: CMP-152 (ligand)
chain: PLGLAGAPTSSSTKKTQLQLEHLLLDLQXILNGINNYKNPKLTRXLXYKFYXPKKATELKHLQCLEEELKPLEEVLXLAQSKNFHLRPRDLISNINVIVLELKGSETTFXCEYADETATIVEFLNRWITFSQSIISTLT
modifications: not fully specified; Nle, Hse, Yn3 (Tyr with azide-capped PEG9), Ygp (Tyr with amino-capped PEG8) as printed in Table 3; PEG9-PLGLAG on the N-terminus, cyclised through glutaryl to the side chain of Lys 32
For the molecule B4, the Average EC50 (nM), HEK-Blue IL-2R (CD122+, CD132+) Reporter Assay is 0.0597 nM.

B5: CMP-154, MMP2 cleaved (ligand)
chain: PLGLAGAPTSSSTKKTQLQLEHLLLDLQ[Nle]ILNGIENYKNPKLTR[Nle]L[hSer][Yn3(4)]KF[Ygp(4)][Nle]PKKATELKHLQCLEEELKPLEEVL[hSer]LAQSKNFHLRPRDLISNINVIVLELKGSETTF[hSer]CEYADETATIVEFLNRWITFSQSIISTLT
modifications: linker N-35 via PEG9′; not fully specified (N-terminus); ends not checked; also: cleavable peptide cut by MMP2, site not given here
B5 came in with an Average EC50 (nM), HEK-Blue IL-2R (CD122+, CD132+) Reporter Assay of 0.0059 nM.

B6: CMP-159 (ligand)
chain: PLGLAGAPTSSSTKKTQLQLEHLLLDLE[Nle]ILNGINNYKNPKLTR[Nle]L[hSer][Yn3(4)]KF[Ygp(4)][Nle]PKKATELKHLQCLEEELKPLEEVL[hSer]LAQSKNFHLRPRDLISNINVIVLELKGSETTF[hSer]CEYADETATIVEFLNRWITFSQSIISTLT
modifications: linker N-28 via PEG4′; not fully specified (N-terminus); ends not checked
As for B6, the Average EC50 (nM), HEK-Blue IL-2R (CD122+, CD132+) Reporter Assay amounted to 0.192 nM.

B7: CMP-161 (ligand)
chain: PLGLAGAPTSSSTKKTQLQLEHLLLDLQ[Nle]ILEGINNYKNPKLTR[Nle]L[hSer][Yn3(4)]KF[Ygp(4)][Nle]PKKATELKHLQCLEEELKPLEEVL[hSer]LAQSKNFHLRPRDLISNINVIVLELKGSETTF[hSer]CEYADETATIVEFLNRWITFSQSIISTLT
modifications: linker N-32 via PEG9″; not fully specified (N-terminus); ends not checked
B7 registered an Average EC50 (nM), HEK-Blue IL-2R (CD122+, CD132+) Reporter Assay of 0.168 nM.

B8: CMP-152, MMP2 cleaved (ligand)
chain: PLGLAGAPTSSSTKKTQLQLEHLLLDLQ[Nle]ILNGINNYKNPKLTR[Nle]L[hSer][Yn3(4)]KF[Ygp(4)][Nle]PKKATELKHLQCLEEELKPLEEVL[hSer]LAQSKNFHLRPRDLISNINVIVLELKGSETTF[hSer]CEYADETATIVEFLNRWITFSQSIISTLT
modifications: linker N-38 via glutaryl‑PEG9; not fully specified (N-terminus); ends not checked; also: cleavable peptide cut by MMP2, site not given here
As for B8, the Average EC50 (nM), HEK-Blue IL-2R (CD122+, CD132+) Reporter Assay amounted to 0.0064 nM.
